The values that follow come from paper PMC3725419, “Structural insights into the activation of MST3 by MO25” (Biochemical and Biophysical Research Communications, 2013).

In this assay the target is T1, full length MO25β (human, UniProt Q9H9S4 1-337).
T1 construct: MO25β (mouse protein-25 beta), full length; plasmids are in the supplementary section; also called mouse protein-25 beta; source: E. coli BL21 (DE3) with pRARE2, purified (Glutathione-Sepharose, eluted with Prescission protease)
T1 sequence (looked up): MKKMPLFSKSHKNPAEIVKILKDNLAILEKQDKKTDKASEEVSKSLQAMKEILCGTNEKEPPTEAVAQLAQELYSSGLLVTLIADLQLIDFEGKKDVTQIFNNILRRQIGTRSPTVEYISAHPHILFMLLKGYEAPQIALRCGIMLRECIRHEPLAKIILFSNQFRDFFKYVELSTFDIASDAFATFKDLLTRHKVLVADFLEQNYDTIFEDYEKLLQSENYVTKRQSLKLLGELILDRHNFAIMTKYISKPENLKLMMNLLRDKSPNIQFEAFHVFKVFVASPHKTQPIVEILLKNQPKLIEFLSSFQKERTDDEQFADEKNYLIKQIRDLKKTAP
The experiment in a line: crystal structure; MST3 (19-289) and MO25β mixed in an equimolar ratio, complex isolated on an S200 gel filtration column (20 mM Tris pH 7.5, 200 mM NaCl, 0.5 mM TCEP); sitting drop at 4 °C; two MST3:MO25β complexes in the asymmetric unit; no ATP or inhibitor. As to conditions: both partners purified. A general note: Size exclusion chromatography separates by hydrodynamic size, large species first.

B1: MST3 catalytic fragment (residues 19–289) (domain or fragment)
chain: not shown
notes: numbers count on: isoform b (NCBI NP_001027467.2); plasmids are described in the supplementary section; also called MST3 catalytic domain; source: E. coli BL21 (DE3) with pRARE2, purified (Ni-Sepharose, S200 gel filtration)
Turning to B1, the binding result was “binds”.
